According to US20120082680A1 (Merck Sharp & Dohme, published 2012):
Read-outs that look alike come from different tables or passages of the source. Each block holds one binder with its values, some of them ahead of it.

How the values were obtained:
Test in all cases: cell-based or functional assay
[1] = biological target: T1, V5-, His-tagged recombinant human PCSK9 protein (human, UniProt Q8NBP7 31-692)
[2] = biological target: T1, V5-, His-tagged recombinant human PCSK9 …; remark: listed apart in the source
[3] = biological target: T1, V5-, His-tagged recombinant human PCSK9 …; remark: listed apart in the source
[4] = biological target: T1, V5-, His-tagged recombinant human PCSK9 …; remark: listed apart in the source
[5] = biological target: T1, V5-, His-tagged recombinant human PCSK9 …; remark: listed apart in the source

T1 sequence (Q8NBP7 31-692 limits assumed): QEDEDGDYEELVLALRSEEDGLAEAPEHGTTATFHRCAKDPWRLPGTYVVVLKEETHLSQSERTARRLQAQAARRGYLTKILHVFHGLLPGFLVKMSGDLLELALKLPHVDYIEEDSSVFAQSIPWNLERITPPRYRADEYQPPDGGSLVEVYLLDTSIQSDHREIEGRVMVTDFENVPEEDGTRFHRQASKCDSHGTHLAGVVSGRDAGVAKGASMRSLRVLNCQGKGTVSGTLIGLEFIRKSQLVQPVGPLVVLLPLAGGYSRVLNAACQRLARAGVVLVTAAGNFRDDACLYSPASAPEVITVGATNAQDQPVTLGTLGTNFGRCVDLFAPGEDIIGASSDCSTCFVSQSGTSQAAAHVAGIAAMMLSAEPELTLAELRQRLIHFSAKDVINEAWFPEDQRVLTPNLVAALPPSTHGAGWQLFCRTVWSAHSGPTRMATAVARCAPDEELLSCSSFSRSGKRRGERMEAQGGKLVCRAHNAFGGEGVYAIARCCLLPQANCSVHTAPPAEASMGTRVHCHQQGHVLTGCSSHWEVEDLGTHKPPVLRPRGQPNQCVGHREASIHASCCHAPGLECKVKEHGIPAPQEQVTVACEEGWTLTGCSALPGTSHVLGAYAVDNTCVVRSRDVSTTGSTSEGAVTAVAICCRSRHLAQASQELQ

B1: 1CX1G08 (Fab, V domains shown)
VH: QVQLVESGGGLVQPGGSLRLSCAASGFTFSDYWVSWVRQAPGKGLEWVSFISYDGSSTYYADSVKGRFTISRDNSKNTLYLQMNSLRAEDTAVYYCARTYFEGVDVWGQGTLVTVSS
VL: DIELTQPPSVSVAPGQTARISCSGDNIGTYYVHWYQQKPGQAPVLVIYDDSNRPSGIPERFSGSNSGNTATLTISGTQAEDEADYYCGTWDNTSFNLVFGGGTKLTVLG
IC50 for reversing the PCSK9-dependent loss of cellular diI-LDL uptake (Exopolar assay; Fab titrated against PCSK9 fixed at 25 µg/ml) [1]: 267 nM

B3: 3BX5C01 (Fab, V domains shown)
VH: QVQLVQSGAEVKKPGESLKISCKGSGYSFTSYGISWVRQMPGKGLEWMGMIDPSDSFTTYSPSFQGQVTISADKSISTAYLQWSSLKASDTAMYYCARGYYFTYALQPMDHWGQGTLVTVSS
VL: DIELTQPPSVSVAPGQTARISCSGDNLRDYIVHWYQQKPGQAPVLVIYDDSNRPSGIPERFSGSNSGNTATLTISGTQAEDEADYYCGFDNGGDIDVFGGGTKLTVLG
IC50 for reversing the PCSK9-dependent loss of cellular diI-LDL uptake (Exopolar assay; Fab titrated against PCSK9 fixed at 25 µg/ml) [3]: 1.25 µM

Next, values leading:

IC50 for reversing the PCSK9-dependent loss of cellular diI-LDL uptake (Exopolar assay; Fab titrated against PCSK9 fixed at 25 µg/ml) [2]: 127 nM
B2: 3CX4B08 (Fab, V domains shown)
VH: QVQLVESGGGLVQPGGSLRLSCAASGFTFSNYTMNWVRQAPGKGLEWVSFISSSSSETYYADSVKGRFTISRDNSKNTLYLQMNSLRAEDTAVYYCARGYGDMVDLWGQGTLVTVSS
VL: DIELTQPPSVSVAPGQTARISCSGDSIPTYYVAWYQQKPGQAPVLVIYSDTDRPSGIPERFSGSNSGNTATLTISGTQAEDEADYYCQSFDNHGYHVFGGGTKLTVLG

IC50 for reversing the PCSK9-dependent loss of cellular diI-LDL uptake (Exopolar assay; Fab titrated against PCSK9 fixed at 25 µg/ml) [4]: 107 nM
B4: 3CX2A06 (Fab, V domains shown)
VH: QVQLVQSGAEVKKPGESLKISCKGSGYSFSNFWIAWVRQMPGKGLEWMGIIDPSDSWTRYSPSFQGQVTISADKSISTAYLQWSSLKASDTAMYYCARGDGQDFDNWGQGTLVTVSS
VL: DIQMTQSPSSLSASVGDRVTITCRASQNINSYLNWYQQKPGKAPKLLIYAASSLQSGVPSRFSGSGSGTDFTLTISSLQPEDFAVYYCLQNYDLPNTFGQGTKVEIKR

IC50 for reversing the PCSK9-dependent loss of cellular diI-LDL uptake (Exopolar assay; Fab titrated against PCSK9 fixed at 25 µg/ml) [5]: 269 nM
B5: 3CX3D02 (Fab, V domains shown)
VH: QVQLVQSGAEVKKPGESLKISCKGSGYSFTNSWIGWVRQMPGKGLEWMGIIYPSDSYTIYSPSFQGQVTISADKSISTAYLQWSSLKASDTAMYYCARGGGYYYALMDVWAQGTLVTVSS
VL: DIQMTQSPSSLSASVGDRVTITCRASQTISTWLNWYQQKPGKAPKLLIYAASSLQSGVPSRFSGSGSGTDFTLTISSLQPEDFATYYCLQDSSLPLTFGQGTKVEIKR
